From patent publication US20170088585A1 (BAR ILAN UNIVERSITY, published 2017) come the findings set out here.

Square brackets hold non-standard residues; d marks the D form.

B1: [lLwAsK]: Cyclo-D-leucine-L-leucine-D-tryptophan-L-alanine-D-serine-L-lysine (peptide)
peptide: cyclo([dL]L[dW]A[dS]K)
SMILES: CC(C)C[C@@H]1NC(=O)[C@@H](CC(C)C)NC(=O)[C@H](CCCCN)NC(=O)[C@@H](CO)NC(=O)[C@H](C)NC(=O)[C@@H](Cc2c[nH]c3ccccc23)NC1=O
B2: [lLwHaK]: Cyclo-D-leucine-L-leucine-D-tryptophan-L-histidine-D-alanine-L-lysine (peptide)
peptide: cyclo([dL]L[dW]H[dA]K)
SMILES: CC(C)C[C@@H]1NC(=O)[C@@H](CC(C)C)NC(=O)[C@H](CCCCN)NC(=O)[C@@H](C)NC(=O)[C@H](Cc2c[nH]cn2)NC(=O)[C@@H](Cc2c[nH]c3ccccc23)NC1=O
B3: [aLwHsK]: Cyclo-D-alanine-L-leucine-D-tryptophan-L-histidine-D-serine-L-lysine (peptide)
peptide: cyclo([dA]L[dW]H[dS]K)
SMILES: CC(C)C[C@@H]1NC(=O)[C@@H](C)NC(=O)[C@H](CCCCN)NC(=O)[C@@H](CO)NC(=O)[C@H](Cc2c[nH]cn2)NC(=O)[C@@H](Cc2c[nH]c3ccccc23)NC1=O
B4: [lLwHsA]: Cyclo-D-leucine-L-leucine-D-tryptophan-L-histidine-D-serine-L-alanine (peptide)
peptide: cyclo([dL]L[dW]H[dS]A)
SMILES: CC(C)C[C@@H]1NC(=O)[C@@H](CC(C)C)NC(=O)[C@H](C)NC(=O)[C@@H](CO)NC(=O)[C@H](Cc2c[nH]cn2)NC(=O)[C@@H](Cc2c[nH]c3ccccc23)NC1=O
B5: [lAwHsK]: Cyclo-D-leucine-L-alanine-D-tryptophan-L-histidine-D-serine-L-lysine (peptide)
peptide: cyclo([dL]A[dW]H[dS]K)
SMILES: CC(C)C[C@H]1NC(=O)[C@H](CCCCN)NC(=O)[C@@H](CO)NC(=O)[C@H](Cc2c[nH]cn2)NC(=O)[C@@H](Cc2c[nH]c3ccccc23)NC(=O)[C@H](C)NC1=O
B6: [lLwHsK]: Cyclo-D-leucine-L-leucine-D-tryptophan-L-histidine-D-serine-L-lysine (peptide)
peptide: cyclo([dL]L[dW]H[dS]K)
SMILES: CC(C)C[C@@H]1NC(=O)[C@@H](CC(C)C)NC(=O)[C@H](CCCCN)NC(=O)[C@@H](CO)NC(=O)[C@H](Cc2c[nH]cn2)NC(=O)[C@@H](Cc2c[nH]c3ccccc23)NC1=O
B7: [lLaHsK]: Cyclo-D-leucine-L-leucine-D-alanine-L-histidine-D-serine-L-lysine (peptide)
peptide: cyclo([dL]L[dA]H[dS]K)
SMILES: CC(C)C[C@@H]1NC(=O)[C@@H](CC(C)C)NC(=O)[C@H](CCCCN)NC(=O)[C@@H](CO)NC(=O)[C@H](Cc2c[nH]cn2)NC(=O)[C@@H](C)NC1=O

For this experiment, the target named is Aβ40 (UniProt P05067 672-711). The experiment is described as follows: cell-based or functional assay.
Sequence of Aβ40 (P05067 672-711 limits assumed): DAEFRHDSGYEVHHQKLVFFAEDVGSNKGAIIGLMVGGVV
For orientation: Inhibition means the percentage by which the read-out fell short of the control. With B1, the “Inhibition at 1:1 (ThT assay, Aβ:cyclic peptide)” value amounted to 73% and the “Inhibition at 1:1/3 (ThT assay, Aβ:cyclic peptide)” value was found to be 49%.
With B2, the “Inhibition at 1:1 (ThT assay, Aβ:cyclic peptide)” value amounted to 56% and the “Inhibition at 1:1/3 (ThT assay, Aβ:cyclic peptide)” value is 47%.
Take B3: the “Inhibition at 1:1 (ThT assay, Aβ:cyclic peptide)” value was 53% and the “Inhibition at 1:1/3 (ThT assay, Aβ:cyclic peptide)” value is 12%.
B4: the “Inhibition at 1:1 (ThT assay, Aβ:cyclic peptide)” value is 67% and the “Inhibition at 1:1/3 (ThT assay, Aβ:cyclic peptide)” value turned out to be 48%.
On to B5, for which the “Inhibition at 1:1 (ThT assay, Aβ:cyclic peptide)” value was determined as 44% and the “Inhibition at 1:1/3 (ThT assay, Aβ:cyclic peptide)” value came out at 3%.
Regarding B6, the “Inhibition at 1:1 (ThT assay, Aβ:cyclic peptide)” value is 60% and the “Inhibition at 1:1/3 (ThT assay, Aβ:cyclic peptide)” value is 32%.
Consider B7, for which the “Inhibition at 1:1 (ThT assay, Aβ:cyclic peptide)” value is 4% and the “Inhibition at 1:1/3 (ThT assay, Aβ:cyclic peptide)” value was 5%.
